We go through seven molecules from patent publication US20260146073A1 (published 2026).

Changes are numbered by the printed parent chain.

Assay [1] has as its target T1, mutated CDKN2A, frameshift (p16INK4a -1 or +2 indels between M54 and W100); p14ARF -2 or +1 indels between G69 … (human).
T1 peptide: AVCPWTWLR
The assay can be described thus: multimer staining.

In assay [2] the target is T2, WT p16INK4a (CDKN2A) peptide on HLA-A*02:01 (human).
T2 peptide: RLPVDLAEEL
Kind of assay: cytokine release.

For assay [3], the target named is T3, WT p16INK4a (CDKN2A) peptide on HLA-A*02:01 (human).
T3 peptide: LPVDLAEEL
The assay can be described thus: cytokine release.

Assay [4] has as its target T1, mutated CDKN2A, frameshift (p16INK4a -1 …). Kind of assay: cytokine release.
The target in assay [5] is T4, mutated CDKN2A, frameshift (p16INK4a -1 or +2 indels between M54 and W100); p14ARF -2 or +1 indels between G69 … (human).
T4 peptide: AVCPWTWLR
Kind of assay: multimer staining.

B1: 3333 TCR-C (TCR, V domains shown)
Valpha: QKEVEQNSGPLSVPEGAIASLNCTYSDRGSQSFFWYRQYSGKSPELIMSIYSNGDKEDGRFTAQLNKASQYVSLLIRDSQPSDSATYLCAVNRAREAAGNKLTFGGGTRVLVKP
Vbeta: DIYQTPRYLVIGTGKKITLECSQTMGHDKMYWYQQDPGMELHLIHYSYGVNSTEKGDLSSESTVSRIRTEHFPLTLESARPSHTSQYLCASSRPGSEKLFFGSGTQLSVL
For B1, the binding result in assay [1] is on record as “recognises”.

B2: 3333 TCR-A (TCR, V domains shown)
Valpha: QKEVEQNSGPLSVPEGAIASLNCTYSDRGSQSFFWYRQYSGKSPELIMSIYSNGDKEDGRFTAQLNKASQYVSLLIRDSQPSDSATYLCAVNTASGTYKYIFGTGTRLKVLA
Vbeta: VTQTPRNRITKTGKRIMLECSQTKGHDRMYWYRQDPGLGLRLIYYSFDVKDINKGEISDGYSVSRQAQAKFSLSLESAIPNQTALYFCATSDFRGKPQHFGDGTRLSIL
Turning to B2, in assay [1], the binding result was “recognises”.

B3: 4286 TCR 10-2 (TCR, V domains shown)
Valpha: QKEVEQNSGPLSVPEGAIASLNCTYSDRGSQSFFWYRQYSGKSPELIMFIYSNGDKEDGRFTAQLNKASQYVSLLIRDSQPSDSATYLCAVPNSGYSTLTFGKGTMLLVSP
Vbeta: GVTQSPTHLIKTRGQQVTLRCSPISGHKSVSWYQQVLGQGPQFIFQYYEKEERGRGNFPDRFSARQFPNYSSELNVNALLLGDSALYLCASRTGTVTNSYNEQFFGPGTRLTVL
On to B3, for which the binding result in assay [2] and in assay [3] was “no recognition” in each case.

B4: 4286 TCR 10-1 (TCR, V domains shown)
Valpha: QKEVEQNSGPLSVPEGAIASLNCTYSDRGSQSFFWYRQYSGKSPELIMFIYSNGDKEDGRFTAQLNKASQYVSLLIRDSQPSDSATYLCAVKSWVIFGKGTRLHILP
Vbeta: GVTQSPTHLIKTRGQQVTLRCSPISGHKSVSWYQQVLGQGPQFIFQYYEKEERGRGNFPDRFSARQFPNYSSELNVNALLLGDSALYLCASSPSAQSSYGYTFGSGTRLTVV
Regarding B4, the binding result in assay [2] and in assay [3] was “no recognition” in each case.

B5: 4286 TCR 10-3 (TCR, V domains shown)
Valpha: QSVSQHNHHVILSEAASLELGCNYSYGGTVNLFWYVQYPGQHLQLLLKYFSGDPLVKGIKGFEAEFIKSKFSFNLRKPSVQWSDTAEYFCAVKDTGFQKLVFGTGTRLLVSP
Vbeta: GAVVSQHPSWVICKSGTSVKIECRSLDFQATTMFWYRQFPKQSLMLMATSNEGSKATYEQGVEKDKFLINHASLTLSTLTVTSAHPEDSSFYICSARGGRNSFEQFFGPGTRLTVL
For the molecule B5, the binding result in assay [2] and in assay [3] was “no recognition” throughout.

B6: 4286 TCR 10-4 (TCR, V domains shown)
Valpha: B5 Valpha
Vbeta: B5 Vbeta with R100A, N101R, F103Y, F106Y, L116T
Regarding B6, the binding result in assay [2] and in assay [3] was “no recognition” throughout.

B7: 1913 TCR-41BB (TCR, V domains shown)
Valpha: ELKVEQNPLFLSMQEGKNYTIYCNYSTTSDRLYWYRQDPGKSLESLFVLLSNGAVKQEGRLMASLDTKARLSTLHITAAVHDLSATYFCAVDPTGANSKLTFGKGITLSVRP
Vbeta: GVTQTPKHLITATGQRVTLRCSPRSGDLSVYWYQQSLDQGLQFLIQYYNGEERAKGNILERFSAQQFPDLHSELNLSSLELGDSALYFCASSVAISGEETQYFGPGTRLLVL
As for B7, the binding result in assay [4] and in assay [5] was “recognises” in each case.
